Results as given in US20170204158A1 (Regeneron, published 2017).

Tests used:
[1] = target: T1, monkey IL-33 expressed with C-terminal hexahistidine tag (MfIL-33-6His) (cynomolgus monkey (M. fascicularis)); assay: SPR (Biacore T-200), 37 C; Fc fusion captured by anti-Fc antibody, MfIL-33-6His injected
T1 construct: also called M. fascicularis IL-33-6His; cynomolgus monkey IL-33
T1 chain: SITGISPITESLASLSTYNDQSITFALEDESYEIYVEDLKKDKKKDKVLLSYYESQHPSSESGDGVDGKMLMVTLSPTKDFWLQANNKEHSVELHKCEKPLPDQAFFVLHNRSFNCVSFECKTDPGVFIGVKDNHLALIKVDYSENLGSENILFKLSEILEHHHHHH
Experimental: (§1) The Biacore sensor surface was first derivatized by amine coupling a polyclonal rabbit anti-mouse antibody (GE, # BR-1008-38) or with a monoclonal mouse anti-human Fc antibody (GE, # BR-1008-39) to capture IL-33 Trap and receptor proteins with a C-terminal mouse IgG2a Fc tag or a C-terminal human IgG1 Fc tag, respectively. Kinetic experiments were carried out in 0.01 M HEPES pH 7.4, 0.15 M NaCl, 3 mM EDTA, and 0.005% v/v Surfactant Tween-20 (HBST running buffer). Different concentrations of human IL-33, mouse IL-33 or MfIL-33-6His prepared in HBST running buffer (ranging from 60 nM to 27.4 pM, 3-fold dilutions, for Trap proteins and ranging from 60 nM to 0.25 nM, 3-fold dilutions, for ST2 receptor proteins) were injected over the captured IL-33 Trap and receptor protein surfaces at a flow rate of 50 μL/minute. Association of different IL-33 proteins to the different capture surfaces was monitored for 7 minutes for Trap proteins or 4 minutes for ST2 receptor proteins and their dissociation in HBST running buffer was monitored for 14 minutes for Trap proteins or 8 minutes for ST2 receptor proteins. Kinetic association (ka) and dissociation (kd) rate constants were determined by fitting the real-time binding sensorgrams to a 1:1 binding model using Scrubber 2.0c curve-fitting software. Binding dissociation equilibrium constants (KD) and dissociative half-lives (t½) were calculated from the kinetic rate constants as: […]

[2] = target: T2, human IL-33 (R&D Systems, # 3625-IL-010/CF) (human, UniProt O95760 112-270, biotinylated in the blocking ELISA of Example 3 (sites not given)); assay: cell-based or functional assay
T2 sequence (looked up): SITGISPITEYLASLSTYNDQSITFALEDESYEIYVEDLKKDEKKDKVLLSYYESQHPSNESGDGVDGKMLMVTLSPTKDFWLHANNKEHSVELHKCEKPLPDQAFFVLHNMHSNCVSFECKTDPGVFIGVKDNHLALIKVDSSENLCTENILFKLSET

[3] = target: T1, monkey IL-33 expressed with C-terminal …; assay: SPR (Biacore T-200), 25 C; Fc fusion captured by anti-Fc antibody, MfIL-33-6His injected
Experimental: as §1

[4] = target: T2, human IL-33 (R&D Systems, # …); assay: SPR (Biacore T-200), 25 C; Fc fusion captured by anti-Fc antibody, IL-33 injected
Experimental: as §1

[5] = target: T2, human IL-33 (R&D Systems, # …); assay: competition ELISA; antagonist pre-mixed with 20 pM biotin-hIL-33, binding to plate-coated human ST2-Fc; highest concentration tested
Experimental: The ability of exemplary IL-33 antagonists of the invention to block human IL-33 (hIL-33) binding to the human ST2 receptor was measured using a competition sandwich ELISA. A portion of human ST2 protein ecto domain that was expressed with a C-terminal mouse Fc tag (SEQ ID NO:2) was coated at a concentration of 1 μg/mL in PBS buffer on a 96-well microtiter plate overnight at 4° C. […] Biotinylated hIL-33 protein (R&D systems, #3625-IL/CF) (biot-hIL-33) was added to achieve a constant final concentration of 20 pM to serial dilutions of IL-33 antagonists ranging from 0 to 100 nM. The mixture was incubated for 1 hour at room temperature (RT) before transfer to the hST2-hFc coated microtiter plates. After incubation for 1 hour at RT, the wells were then washed, and plate-bound biot-hIL-33 was detected with HRP-conjugated streptavidin (Thermo Scientific, # N200). All samples were developed with a TMB solution (BD biosciences, # 51-2607KC) to produce a colorimetric reaction and then quenched by acidification with 1M sulfuric acid before measuring absorbance at 450 nm on a Victor X5 plate reader (PerkinElmer). Data analysis was performed using a sigmoidal dose-response model within Prism™ software. […] Maximum blocking values represent the ability of the antagonists to block IL-33 binding relative to baseline. The absorbance measured at the constant amount of hIL-33 on the dose curve was defined as 0% blocking and the absorbance with no added IL-33 was defined as 100% blocking. The absorbance values of the wells containing the highest concentration tested for each antagonist were used to determine the maximum blocking percent.

[6] = target: T2, human IL-33 (R&D Systems, # …); assay: SPR (Biacore T-200), 37 C; Fc fusion captured by anti-Fc antibody, IL-33 injected
Experimental: as §1

[7] = target: T2, human IL-33 (R&D Systems, # …); assay: cell-based or functional assay; remark: listed apart in the source

B1: hST2-hIL1RAcP-mFc (Fc fusion)
chain: KFSKQSWGLENEALIVRCPRQGKPSYTVDWYYSQTNKSIPTQERNRVFASGQLLKFLPAAVADSGIYTCIVRSPTFNRTGYANVTIYKKQSDCNVPDYLMYSTVSGSEKNSKIYCPTIDLYNWTAPLEWFKNCQALQGSRYRAHKSFLVIDNVMTEDAGDYTCKFIHNENGANYSVTATRSFTVKDEQGFSLFPVIGAPAQNEIKEVEIGKNANLTCSACFGKGTQFLAAVLWQLNGTKITDFGEPRIQQEEGQNQSFSNGLACLDMVLRIADVKEEDLLLQYDCLALNLHGLRRHTVRLSRKNPIDHHSSERCDDWGLDTMRQIQVFEDEPARIKCPLFEHFLKFNYSTAHSAGLTLIWYWTRQDRDLEEPINFRLPENRISKEKDVLWFRPTLLNDTGNYTCMLRNTTYCSKVAFPLEVVQKDSCFNSPMKLPVHKLYIEYGIQRITCPNVDGYFPSSVKPTITWYMGCYKIQNFNNVIPEGMNLSFLIALISNNGNYTCVVTYPENGRTFHLTRTLTVKVVGSPKNAVPPVIHSPNDHVVYEKEPGEELLIPCTVYFSFLMDSRNEVWWTIDGKKPDDITIDVTINESISHSRTEDETRTQILSIKKVTSEDLKRSYVCHARSAKGEVAKAAKVKQKVPAPRYTVESGEPRGPTIKPCPPCKCPAPNLLGGPSVFIFPPKIKDVLMISLSPIVTCVVVDVSEDDPDVQISWFVNNVEVHTAQTQTHREDYNSTLRVVSALPIQHQDWMSGKEFKCKVNNKDLPAPIERTISKPKGSVRAPQVYVLPPPEEEMTKKQVTLTCMVTDFMPEDIYVEWTNNGKTELNYKNTEPVLDSDGSYFMYSKLRVEKKNWVERNSYSCSVVHEGLHNHHTTKSFSRTPGK
notes: also called third IL-33 antagonist; human IL-33 Trap
60 nM Monkey IL-33 Bound (RU) [1]: 27 RU | Kd [1]: 3.29 pM | koff [1]: 4.79e-05 s⁻¹ | kon [1]: 1.45e+07 M⁻¹ s⁻¹ | t1/2 [1]: 241 min | IC50 (M), blocking of IL-33 induced activation of human basophils (CD203c), donor 655675 [2]: 1.9e-11 M | IC50 (M), blocking of IL-33 induced activation of human basophils (CD203c), donor 655676 [2]: 1.51e-11 M | IC50 (M), blocking of IL-33 induced activation of human basophils (CD203c), donor 655685 [2]: 2.3e-11 M | IC50 (M), blocking of IL-33 induced activation of human basophils (CD203c), donor 655686 [2]: 2.09e-11 M | IC50 (M), blocking of IL-33 induced activation of human basophils (CD203c), donor 698846 [2]: 3.6e-11 M | IC50 (M), blocking of IL-33 induced activation of human basophils (CD203c), donor 698847 [2]: 1.11e-11 M | 60 nM Monkey IL-33 Bound (RU) [3]: 28 RU | Kd [3]: 3.13 pM | koff [3]: 4.09e-05 s⁻¹ | kon [3]: 1.31e+07 M⁻¹ s⁻¹ | t1/2 [3]: 282 min | 60 nM Human IL-33 Bound (RU) [4]: 28 RU | Kd [4]: 3.29 pM | koff [4]: 6.32e-05 s⁻¹ | kon [4]: 1.92e+07 M⁻¹ s⁻¹ | t1/2 [4]: 183 min | % Maximum blocking [5]: 97% | 60 nM Human IL-33 Bound (RU) [6]: 28 RU | Kd [6]: 1.11 pM | koff [6]: 2.02e-05 s⁻¹ | kon [6]: 1.82e+07 M⁻¹ s⁻¹ | t1/2 [6]: 573 min | IC50 (M), blocking of IL-33 induced IFN-gamma release from human PBMC, donor 634966 [7]: 2.13e-12 M | IC50 (M), blocking of IL-33 induced IFN-gamma release from human PBMC, donor 655681 [7]: 4.59e-11 M | IC50 (M), blocking of IL-33 induced IFN-gamma release from human PBMC, donor 655682 [7]: 3.97e-12 M | IC50 (M), blocking of IL-33 induced IFN-gamma release from human PBMC, donor 655684 [7]: 6.79e-11 M | IC50 (M), blocking of IL-33 induced IFN-gamma release from human PBMC, donor 698842 [7]: 7.39e-11 M | IC50 (M), blocking of IL-33 induced IFN-gamma release from human PBMC, donor 698843 [7]: 1.73e-11 M | IC50 (M), blocking of IL-33 induced IFN-gamma release from human PBMC, donor 727054 [7]: 3.34e-10 M | IC50 (M), blocking of IL-33 induced IFN-gamma release from human PBMC, donor 727055 [7]: 1.23e-10 M
